Data from the DeepSol protein solubility set.

Assay: soluble on expression in E. coli; label from the status in PepcDB or PDB records

Sequence | soluble on expression in E. coli
MGHHHHHHHHHHSSGHIEGRHMKLEFMNLLSENKKENYYYCGENKVALVTGAGRGIGREIAKMLAKSVSHVICISRTQKSCDSVVDEIKSFGYESSGYAGDVSKKEEISEVINKILTEHKNVDILVNNAGITRDNLFLRMKNDEWEDVLRTNLNSLFYITQPISKRMINNRYGRIINISSIVGLTGNVGQANYSSSKAGVIGFTKSLAKELASRNITVNAIAPGFISSDMTDKISEQIKKNIISNIPAGRMGTPEEVANLACFLSSDKSGYINGRVFVIDGGLSP | soluble
MDTLPECPITNTASLLPHSGRMVLIDRITRYGDDFVEAGAQVSPNHILLLDDKLPYTAFIELMAQAVGAYAGIQARKNARSVRLGFLLGTRKLEIFAQSVPIGTHLLATAHMSIQDAGGMGVFDCELRWTDAPETSSETLPSDGILARASLNVYSPEHPAGTTDAVLEHHHHHH | not soluble
MGSDKIHHHHHHMTEADLFVSQFLTEKLTALFPNVPVLSEENCHISFEERKNWKEYWLIDPLDGTQQFINRTDQFSVLITLVRKNKPVLSVIHAPILSTTYYAMCDFGTFKKQLDQVKKLTKNTTNFDRPLRIAVGATTSQEKVRSILPKDFPCEFVVVGSSSLKSGLVAEGAVDCYVRLGQTGEWDTAGAEVLLGETHGAIFDSHFEPLTYNQRETLINPHFVMVGDQSFDWRSIFQFN | not soluble
MGSDKIHHHHHHMRKLAHNFYKPLAIGAPEPIRELPVRPERVVHFFPPHVEKIRARIPEVAKQVDVLCGNLEDAIPMDAKEAARNGFIEVVKATDFGDTALWVRVNALNSPWVLDDIAEIVAAVGNKLDVIMIPKVEGPWDIHFVDQYLALLEARHQIKKPILIHALLETAQGMVNLEEIAGASPRMHGFSLGPADLAASRGMKTTRVGGGHPFYGVLADPQEGQAERPFYQQDLWHYTIARMVDVAVAHGLRAFYGPFGDIKDEAACEAQFRNAFLLGCTGAWSLAPNQIPIAKRVFSPDVNEVLFAKRILEAMPDGSGVAMIDGKMQDDATWKQAKVIVDLARMIAKKDPDLAQAYGL | not soluble
APIKVGINGFGRIGRMVFQAICDQGLIGTEIDVVAVVDMSTNAEYFAYQMKHDTVHGRPKYTVEAVKSSPSVETADVLVVNGHRIKCVKAQRNPADLPWGKLGVDYVIESTGLFTDKLKAEGHIKGGAKKVVISAPASGGAKTIVMGVNQHEYSPASHHVVSNASCTTNCLAPIVHVLTKENFGIETGLMTTIHSYTATQKTVDGVSLKDWRGGRAAAVNIIPSTTGAAKAVGMVIPSTKGKLTGMSFRVPTPDVSVVDLTFRATRDTSIQEIDKAIKKAAQTYMKGILGFTDEELVSADFINDNRSSVYDSKATLQNNLPGEKRFFKVVSWYDNEWAYSHRVVDLVRYMAAKDAASSKM | soluble
MGSNELFTRSVYMQSSVYSNNSKSSTSSSSSNSIPTQSAPAMNAASSPSKEPAKQEKEDDKKEVEEKKEIEKSVEAKVEGKVKAKVESTQNTDNSQELKAPEEKPKKKKKKKSNLIVSASVEKLSIVPEKEDFSILEKKLREFNFYHGFLPREDLHTTLHNPGDFLLRVSEVVEGEHKVNREVILSLIPVSTVSKDEEDRKKVRNVVIKRVTNLFFCEITRTFESISDLVTYYTKNPGGCASGTFQLKHPILQQSWEFMHSDVTVGKVLGEGAFGKVCSGTLKLKDGTNVDVAIKMTKVSAFLSKMKIKEMMNEARFIRNFNHKNVVRLYGVAHHEQPLYILLELVKGGSLQDHMKKEKGAVSIVEKIKFCSGAGRGIEYLHQNNCIHRDIAARNCLLHEKEVKITDFGLSRTGPVYKMKTACKLPVKWLAPETLSTLSFSFATDTYSWGVTCYEVFADGVEPFFGIQNSVVKTDILANKFLQMPPTTPESIKKYMEASIFVEGSRRATMTSAIAEFEKIKSALERPPSDMLSVGAGAKKVMKLLKRNKQEKYSKGD | not soluble
MSLVTRSVLKFGGSSVSDFTKIKRIAEMLKERVNQDEQLIVVVSAMGNTTDQLMTNVSTLTKAPKQQELALLLTTGEQQTVSYLSMVLNDIGVNAKAMTGYQAGIKTIGHHLKSKIAQINPQTFEQAFQENDILVVAGFQGINEHQELTTLGRGGSDTTAVALAVSNQIPCEIYTDVDGVYATDPRLLPKAKRLDIVSYEEMMEMSALGAGVLETRSVELAKNYNIPLYLGKTLSNVKGTWIMSNEEILEKKAVTGVALDKHMMHVTISYPLPDNQLLTQLFTELEEGAVNVDMISQIVNLDGLQLSFTIKDSDFHQISMILETLKNQYEALAYKINEHYVKISLIGSGMRDMSGVASKAFLTLIENNIPFYQTTTSEISISYVIDDFNGQQAVEKLYDAFNIEGHHHHHH | soluble
MGHHHHHHSHMAFRQPNTKELKVIRKALSYYGSGDFLSHYALLVKEGEKKEVYGVSKELYGVIGELNPHYAGVKIGEVGRRFRFSLEGTFWLLRNSRNRVWVNERGEMLFLYGRDIFAGSVERASEFGENSIVFVCNRFDDVLGIGRSRHSSDELSNLPEDKVFVENLVDRGEYLRH | soluble
TTHFTVADRWGNVVSYTTTIEQLFGTGIMVPDYGVILNNELTDFDAIPGGANEVQPNKRPLSSMTPTILFKDDKPVLTVGSPGGATIISSVLQTILYHIEYGMELKAAVEEPRIYTNSMSSYRYEDGVPKDVLSKLNGMGHKFGTSPVDIGNVQSISIDHENGTFKGVADSSRNGAAIGINLKRKLEHHHHHH | soluble
MGSDKIHHHHHHMMKMQVVIASGKGGVGKSSITASLLYLLKDEYKLIAVDADAEAPNLGLLLGVTEWEIEREHIGAKIARINPESCIRCGLCQMRCPYECIYVDEEGNYVVNELTCEGCNVCGLVCPVPGTITLEEVRSGIIRKATTKYGFPIISAQLDVGKPESGKLVTEEKEWASKIMKEEGLEHMIVDSAAGIGCQVIASVGGADVAILIAEPTPASLSDVQRVYKVVQHFREPAYLIINKADINPGFTKLREWAESEGIPILGEVPYDSSIPRSMSMLKPFVEAFPDSKASEAIRGIAERIKEEILKG | not soluble
MEAASIAVPGAGASLRAQALDALMTPAWADKLAAVAAIDAGAPVGAQQDLAEPAGLPGRPPAPQLVPPSQVRQRSVQSPEGRAALLHALAHIEFNAINLALDAVWRYGGLPDAYYLDWLKVAREEAYHFDLLNRHLSGLGHAYGDFPAHNGLWEMAEKTRADLLARLALVPRTLEARGLDASPLIRDKLAAAGDADGAAILEIILRDEIGHVAIGNHWYKALCAQRGLDPVAQYAQLASRYGAPRLRGPFNLEARRAAGFDEDELRALLQAKLAAALEHHHHHH | soluble
MGSDKIHHHHHHMKVNLPAFERAGVMVVGDVMLDRYWYGPTCRISPEAPVPVVKVNTVEERPGGAANVAMNIASLGANARLVGLTGIDDAARALSKTLAEVNVKCDFVSVPTHPTITKLRVLSRNQQLIRLDFEEGFEGVDPQPLHERINQALGSIGALVLSDYAKGALTSVQTMISLARQAGVPVLIDPKGTDFERYRGATLLTPNLSEFEAVAGKCKSEDELVERGMKLIADYDLSALLVTRSEQGMTLLQPNKAPLHMPTQAQEVYDVTGAGDTVIGVLAATLAAGNTLEEACYFANAAAGVVVGKLGTSTVSPIELENAVRGRADTGFGVMTEEELRQAVASARKRGEKVVMTNGVFDILHAGHVSYLANARKLGDRLIVAVNSDASTKRLKGESRPVNPLEQRMIVLGALESVDWVVSFEEDTPQRLIAGILPDLLVKGGDYKPEEIAGSEEVWANGGEVMVLNFEDGCSTTNIIKKIQTESEK | not soluble
SATQIPSTISILATSDIHGNVLNYDYATGKAPTNTQGLAKVSSYVNSVRASKPNVMLIDDGDTIQGTPLSYYYDKIDTTSEYPLMKIMGAMKYDTWTLGNHEFNYGLPTLNRVISDARKENINVLSANTYNSDNTNFVNPYYIKTFNINGKTVNVGILGLTTKCIPDWEDPSHYAGLHFNDLVDEAKLWVPRMKAAGANVVIVAAHSGEEGAADTIPENQIKAIATNVSGIDAIVAGHAHVTVNDTSLKNPNGKTVPVVEPNKWGTFVSQIDITLDNSGNASTINTQNVKMTDSIPEDPNIVNIIQPYQNKTLDYIST | not soluble
MIRSIFIPPTSITATSRLFYGMRAYSTKLEKASLQKYLHDPVKVTVIPITDKESFIYYKHTDNLFNSQSRILKAEKWIVEKSAKLWRKLKKSPKSYNKKIVSMVQSLLNSTPWSENSLLTIPSESYILKRIKGEKDKTQEIRLTLKDYTVKAEQVDTQPLHVYYPPGISSPDECLRQMKKLYQEGLIYHKKWTLYCLLGLPLTIPLILIPLIPNVPGFYLSYRAYVNIKAYLGAKHLKSLLESSKQNLEFRELLGYTEVYKRGTSSRTQGNQKESKGAPELLLNKKTLPLILDFLEVHELESDLNKVILQESKSQEKNKI | not soluble
